Test results taken from patent publication US20230235013A1 (MABSOLVE, published 2023).

B1: anti-CD20 (rituximab variable regions) mouse IgG2a L234Q/L235S/G236R (antibody)
heavy: QVQLQQPGAELVKPGASVKMSCKASGYTFTSYNMHWVKQTPGRGLEWIGAIYPGNGDTSYNQKFKGKATLTADKSSSTAYMQLSSLTSEDSAVYYCARSTYYGGDWYFNVWGAGTTVTVSSAKTTAPSVYPLAPVCGDTTGSSVTLGCLVKGYFPEPVTLTWNSGSLSSGVHTFPAVLQSDLYTLSSSVTVTSSTWPSQSITCNVAHPASSTKVDKKIEPRGPTIKPCPPCKCPAPNQSRGPSVFIFPPKIKDVLMISLSPIVTCVVVDVSEDDPDVQISWFVNNVEVHTAQTQTHREDYNSTLRVVSALPIQHQDWMSGKEFKCKVNNKDLPAPIERTISKPKGSVRAPQVYVLPPPEEEMTKKQVTLTCMVTDFMPEDIYVEWTNNGKTELNYKNTEPVLDSDGSYFMYSKLRVEKKNWVERNSYSCSVVHEGLHNHHTTKSFSRTPGK
light: QIVLSQSPAILSASPGEKVTMTCRASSSVSYIHWFQQKPGSSPKPWIYATSNLASGVPVRFSGSGSGTSYSLTISRVEAEDAATYYCQQWTSNPPTFGGGTKLEIKRADAAPTVSIFPPSSEQLTSGGASVVCFLNNFYPKDINVKWKIDGSERQNGVLNSWTDQDSKDSTYSMSSTLTLTKDEYERHNSYTCEATHKTSTSPIVKSFNRNEC
notes: copies: 2 + 2
B2: anti-CD20 (rituximab) human IgG1 G236R (antibody)
heavy: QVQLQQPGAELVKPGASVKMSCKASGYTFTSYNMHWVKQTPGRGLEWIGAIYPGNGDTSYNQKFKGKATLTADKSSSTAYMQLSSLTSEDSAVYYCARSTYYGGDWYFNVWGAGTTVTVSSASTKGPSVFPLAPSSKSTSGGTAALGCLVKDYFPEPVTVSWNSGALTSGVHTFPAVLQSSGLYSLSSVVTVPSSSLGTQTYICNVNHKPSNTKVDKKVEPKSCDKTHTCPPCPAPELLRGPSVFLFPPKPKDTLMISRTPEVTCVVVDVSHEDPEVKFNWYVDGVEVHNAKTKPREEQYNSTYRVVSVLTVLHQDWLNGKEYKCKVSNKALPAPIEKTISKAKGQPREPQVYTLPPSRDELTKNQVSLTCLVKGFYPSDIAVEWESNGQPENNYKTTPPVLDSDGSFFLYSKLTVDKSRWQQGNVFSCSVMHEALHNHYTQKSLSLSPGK
light: QIVLSQSPAILSASPGEKVTMTCRASSSVSYIHWFQQKPGSSPKPWIYATSNLASGVPVRFSGSGSGTSYSLTISRVEAEDAATYYCQQWTSNPPTFGGGTKLEIKRTVAAPSVFIFPPSDEQLKSGTASVVCLLNNFYPREAKVQWKVDNALQSGNSQESVTEQDSKDSTYSLSSTLTLSKADYEKHKVYACEVTHQGLSSPVTKSFNRGEC
notes: EU numbering; also called 2-81; copies: 2 + 2
B3: anti-CD20 (rituximab) human IgG1 L234Q/L235R/G236R (antibody)
heavy: QVQLQQPGAELVKPGASVKMSCKASGYTFTSYNMHWVKQTPGRGLEWIGAIYPGNGDTSYNQKFKGKATLTADKSSSTAYMQLSSLTSEDSAVYYCARSTYYGGDWYFNVWGAGTTVTVSSASTKGPSVFPLAPSSKSTSGGTAALGCLVKDYFPEPVTVSWNSGALTSGVHTFPAVLQSSGLYSLSSVVTVPSSSLGTQTYICNVNHKPSNTKVDKKVEPKSCDKTHTCPPCPAPEQRRGPSVFLFPPKPKDTLMISRTPEVTCVVVDVSHEDPEVKFNWYVDGVEVHNAKTKPREEQYNSTYRVVSVLTVLHQDWLNGKEYKCKVSNKALPAPIEKTISKAKGQPREPQVYTLPPSRDELTKNQVSLTCLVKGFYPSDIAVEWESNGQPENNYKTTPPVLDSDGSFFLYSKLTVDKSRWQQGNVFSCSVMHEALHNHYTQKSLSLSPGK
light: QIVLSQSPAILSASPGEKVTMTCRASSSVSYIHWFQQKPGSSPKPWIYATSNLASGVPVRFSGSGSGTSYSLTISRVEAEDAATYYCQQWTSNPPTFGGGTKLEIKRTVAAPSVFIFPPSDEQLKSGTASVVCLLNNFYPREAKVQWKVDNALQSGNSQESVTEQDSKDSTYSLSSTLTLSKADYEKHKVYACEVTHQGLSSPVTKSFNRGEC
notes: EU numbering; also called 2-32; copies: 2 + 2
B4: anti-CD20 (rituximab) human IgG1 G236R/L328R (antibody)
heavy: not shown
light: QIVLSQSPAILSASPGEKVTMTCRASSSVSYIHWFQQKPGSSPKPWIYATSNLASGVPVRFSGSGSGTSYSLTISRVEAEDAATYYCQQWTSNPPTFGGGTKLEIKRTVAAPSVFIFPPSDEQLKSGTASVVCLLNNFYPREAKVQWKVDNALQSGNSQESVTEQDSKDSTYSLSSTLTLSKADYEKHKVYACEVTHQGLSSPVTKSFNRGEC
notes: EU numbering; also called 2-68; copies: 2 + 2
B5: anti-CD20 (rituximab) human IgG1 L234Q/L235D/G236R (antibody)
heavy: QVQLQQPGAELVKPGASVKMSCKASGYTFTSYNMHWVKQTPGRGLEWIGAIYPGNGDTSYNQKFKGKATLTADKSSSTAYMQLSSLTSEDSAVYYCARSTYYGGDWYFNVWGAGTTVTVSSASTKGPSVFPLAPSSKSTSGGTAALGCLVKDYFPEPVTVSWNSGALTSGVHTFPAVLQSSGLYSLSSVVTVPSSSLGTQTYICNVNHKPSNTKVDKKVEPKSCDKTHTCPPCPAPEQDRGPSVFLFPPKPKDTLMISRTPEVTCVVVDVSHEDPEVKFNWYVDGVEVHNAKTKPREEQYNSTYRVVSVLTVLHQDWLNGKEYKCKVSNKALPAPIEKTISKAKGQPREPQVYTLPPSRDELTKNQVSLTCLVKGFYPSDIAVEWESNGQPENNYKTTPPVLDSDGSFFLYSKLTVDKSRWQQGNVFSCSVMHEALHNHYTQKSLSLSPGK
light: QIVLSQSPAILSASPGEKVTMTCRASSSVSYIHWFQQKPGSSPKPWIYATSNLASGVPVRFSGSGSGTSYSLTISRVEAEDAATYYCQQWTSNPPTFGGGTKLEIKRTVAAPSVFIFPPSDEQLKSGTASVVCLLNNFYPREAKVQWKVDNALQSGNSQESVTEQDSKDSTYSLSSTLTLSKADYEKHKVYACEVTHQGLSSPVTKSFNRGEC
notes: EU numbering; also called 2-28; copies: 2 + 2
B6: anti-CD20 (rituximab) human IgG1 L234D/L235S/G236R (antibody)
heavy: QVQLQQPGAELVKPGASVKMSCKASGYTFTSYNMHWVKQTPGRGLEWIGAIYPGNGDTSYNQKFKGKATLTADKSSSTAYMQLSSLTSEDSAVYYCARSTYYGGDWYFNVWGAGTTVTVSSASTKGPSVFPLAPSSKSTSGGTAALGCLVKDYFPEPVTVSWNSGALTSGVHTFPAVLQSSGLYSLSSVVTVPSSSLGTQTYICNVNHKPSNTKVDKKVEPKSCDKTHTCPPCPAPEDSRGPSVFLFPPKPKDTLMISRTPEVTCVVVDVSHEDPEVKFNWYVDGVEVHNAKTKPREEQYNSTYRVVSVLTVLHQDWLNGKEYKCKVSNKALPAPIEKTISKAKGQPREPQVYTLPPSRDELTKNQVSLTCLVKGFYPSDIAVEWESNGQPENNYKTTPPVLDSDGSFFLYSKLTVDKSRWQQGNVFSCSVMHEALHNHYTQKSLSLSPGK
light: QIVLSQSPAILSASPGEKVTMTCRASSSVSYIHWFQQKPGSSPKPWIYATSNLASGVPVRFSGSGSGTSYSLTISRVEAEDAATYYCQQWTSNPPTFGGGTKLEIKRTVAAPSVFIFPPSDEQLKSGTASVVCLLNNFYPREAKVQWKVDNALQSGNSQESVTEQDSKDSTYSLSSTLTLSKADYEKHKVYACEVTHQGLSSPVTKSFNRGEC
notes: EU numbering; also called 2-10; 1-29; copies: 2 + 2
B7: anti-CD20 (rituximab) human IgG1 L235A/G236R (antibody)
heavy: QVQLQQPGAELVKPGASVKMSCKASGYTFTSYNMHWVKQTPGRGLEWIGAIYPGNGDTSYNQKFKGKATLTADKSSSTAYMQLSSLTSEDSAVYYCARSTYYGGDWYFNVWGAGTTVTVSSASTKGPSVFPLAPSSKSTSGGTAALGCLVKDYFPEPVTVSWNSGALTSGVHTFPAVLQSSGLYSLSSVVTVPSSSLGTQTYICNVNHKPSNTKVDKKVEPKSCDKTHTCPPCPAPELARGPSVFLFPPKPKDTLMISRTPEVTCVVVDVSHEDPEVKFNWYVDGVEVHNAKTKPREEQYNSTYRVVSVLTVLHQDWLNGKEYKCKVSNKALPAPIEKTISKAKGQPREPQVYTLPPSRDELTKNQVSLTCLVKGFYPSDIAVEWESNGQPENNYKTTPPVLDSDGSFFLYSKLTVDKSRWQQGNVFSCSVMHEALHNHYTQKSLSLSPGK
light: QIVLSQSPAILSASPGEKVTMTCRASSSVSYIHWFQQKPGSSPKPWIYATSNLASGVPVRFSGSGSGTSYSLTISRVEAEDAATYYCQQWTSNPPTFGGGTKLEIKRTVAAPSVFIFPPSDEQLKSGTASVVCLLNNFYPREAKVQWKVDNALQSGNSQESVTEQDSKDSTYSLSSTLTLSKADYEKHKVYACEVTHQGLSSPVTKSFNRGEC
notes: EU numbering; also called 2-79; copies: 2 + 2
B8: anti-CD20 (rituximab) human IgG1 L234Q/L235S, sample 2-82 (antibody)
heavy: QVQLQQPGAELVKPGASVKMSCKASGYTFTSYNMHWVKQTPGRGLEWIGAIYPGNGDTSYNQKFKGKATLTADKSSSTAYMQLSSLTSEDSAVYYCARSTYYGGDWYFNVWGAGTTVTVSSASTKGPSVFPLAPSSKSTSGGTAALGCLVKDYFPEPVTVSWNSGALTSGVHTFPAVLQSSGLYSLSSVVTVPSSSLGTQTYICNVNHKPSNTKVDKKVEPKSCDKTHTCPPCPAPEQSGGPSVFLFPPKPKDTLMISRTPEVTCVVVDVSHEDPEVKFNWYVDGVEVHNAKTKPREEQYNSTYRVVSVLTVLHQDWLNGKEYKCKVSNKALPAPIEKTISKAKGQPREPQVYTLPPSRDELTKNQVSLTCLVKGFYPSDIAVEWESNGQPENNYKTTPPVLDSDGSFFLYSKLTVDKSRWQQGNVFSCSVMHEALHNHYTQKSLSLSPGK
light: QIVLSQSPAILSASPGEKVTMTCRASSSVSYIHWFQQKPGSSPKPWIYATSNLASGVPVRFSGSGSGTSYSLTISRVEAEDAATYYCQQWTSNPPTFGGGTKLEIKRTVAAPSVFIFPPSDEQLKSGTASVVCLLNNFYPREAKVQWKVDNALQSGNSQESVTEQDSKDSTYSLSSTLTLSKADYEKHKVYACEVTHQGLSSPVTKSFNRGEC
notes: EU numbering; copies: 2 + 2

How the values were obtained:
[1] = target: T1, Human C1q (Sigma Cat. No. 20476), HRP-labelled (human, UniProt P02745 23-245; P02746 28-253; P02747 29-245); assay: ELISA, antibody coated, HRP-C1q; Expt 1, buffer alone 0.053
T1 construct: Coupled to horse-radish peroxidase with Lightning-Link kit; also called HRP-labelled C1q

[2] = target: T1, Human C1q (Sigma Cat. No. 20476), …; assay: ELISA, antibody coated, HRP-C1q; Expt 2, buffer alone 0.051
[3] = target: T2, cynomolgus monkey FcRn (Sino Biological Cat. No. CT031-C08H) (cynomolgus monkey, UniProt Q8SPV9 24-297; Q8SPW0 21-119); assay: SPR, FcRn captured via anti-His, pH 6.0;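 also: SPR binding signal relative to the reference cell, corrected by subtracting the response of a blank sample of running buffer alone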
T2 construct: Bought protein, captured on an anti-histidine chip; also called cynomolgus FcRn

[4] = target: human FcRn (R&D Systems Cat. No. 8639-Fc) (human, UniProt P55899 24-297; P61769 21-119); assay: SPR, FcRn captured via anti-His, pH 6.0;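 also: SPR binding signal relative to the reference cell, corrected by subtracting the response of a blank sample of running buffer alone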
Chain of human FcRn (R&D Systems Cat. No. 8639-Fc) (P55899 24-297 limits assumed, chain 1 of 2): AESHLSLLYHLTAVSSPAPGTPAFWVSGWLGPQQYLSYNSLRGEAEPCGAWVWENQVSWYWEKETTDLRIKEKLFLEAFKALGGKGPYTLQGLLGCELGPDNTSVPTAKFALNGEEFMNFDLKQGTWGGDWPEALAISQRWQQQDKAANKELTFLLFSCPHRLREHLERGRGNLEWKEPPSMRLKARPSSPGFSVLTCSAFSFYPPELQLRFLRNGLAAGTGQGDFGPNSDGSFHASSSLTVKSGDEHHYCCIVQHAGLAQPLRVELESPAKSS
Chain of human FcRn (R&D Systems Cat. No. 8639-Fc) (P61769 21-119 limits assumed, chain 2 of 2): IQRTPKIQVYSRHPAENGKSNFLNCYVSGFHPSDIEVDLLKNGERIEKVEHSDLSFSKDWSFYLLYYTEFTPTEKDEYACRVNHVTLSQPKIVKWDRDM

[5] = target: T3, mouse FcRn (Sino Biological Cat. No. CT029-M08H) (mouse, UniProt Q61559 22-297; P01887 21-119); assay: SPR, FcRn captured via anti-His, pH 6.0;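 also: SPR binding signal relative to the reference cell, corrected by subtracting the response of a blank sample of running buffer alone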
T3 construct: Bought protein, captured on an anti-histidine chip
T3 sequence (looked up): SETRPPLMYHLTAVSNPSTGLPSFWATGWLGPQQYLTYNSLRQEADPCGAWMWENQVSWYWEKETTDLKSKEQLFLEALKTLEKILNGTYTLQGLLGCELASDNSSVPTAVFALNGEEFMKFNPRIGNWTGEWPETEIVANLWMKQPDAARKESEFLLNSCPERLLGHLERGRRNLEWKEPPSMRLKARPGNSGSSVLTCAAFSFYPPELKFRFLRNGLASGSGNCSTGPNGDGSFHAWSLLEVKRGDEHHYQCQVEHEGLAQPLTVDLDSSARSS
T3 sequence (b2m, looked up): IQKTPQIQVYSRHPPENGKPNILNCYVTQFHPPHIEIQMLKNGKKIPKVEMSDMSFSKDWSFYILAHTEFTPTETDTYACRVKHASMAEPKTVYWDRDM

Binder | Mean Absorbance [1] | Mean Absorbance [2] | Corrected response (RU) [3] [RU] | Corrected response (RU) [4] [RU] | Corrected response (RU) [5] [RU]
B1 | 1.45 absorbance (450 nm) | 0.953 absorbance (450 nm) | – | – | –
B2 | – | – | 1290 | 570 | 173
B3 | – | – | 1240 | 533 | 180
B4 | – | – | 1290 | 567 | 206
B5 | – | – | 1160 | 490 | 170
B6 | – | – | 1200 | 507 | 145
B7 | – | – | 1240 | 540 | 168
B8 | – | – | 1170 | 509 | 142
